In article PMC13397619:

B1: NLV2 TCR alpha chain (CDR3α only) (parent)
chain: AGPMKTSYDKVI

Variants of: B1
Assay: T-Switch: Jurkat TCRβ−/− cells expressing a CDR3 saturation-mutagenesis library, stained with two peptide-HLA-A*02:01 tetramers (original and novel peptide) plus anti-CD3, FACS-sorted into four gates, gDNA sequenced
Conditions: tetramers 1 µg/mL, 30 min on ice, SP, DP and SW gates expanded about 10 days between rounds ('two to three rounds of selection' in the Methods), unresolved parent, parent is a CDR3 fragment, scale: fold enrichment, numbering: sequential-on-construct, sequence starts at 1
[1] = with both tetramers (double-negative gate, binds neither): HLA-A*02:01 with … and with …, gate DN: OPPOSITE: higher = more of the variant in the gate that binds neither peptide = LESS binding (or no expression; inferred). Fold enrichment of the CDR3 variant in one FACS gate of a two-tetram
[2] = with both tetramers (double-positive gate): HLA-A*02:01 with … and with …, gate DP: higher = more of the variant in the gate that binds both peptides. Fold enrichment of the CDR3 variant in one FACS gate of a two-tetramer stain. SP/DP/SW gates were expanded and re-sorted bef

Variant: […] (CDR3 as printed); P3A derived by comparing it with the table's wild-type CDR3 AGPMKTSYDKVI
- enrichment [1]: 1.21
- enrichment [2]: 0

Variant: […] (CDR3 as printed); I12R derived by comparing it with the table's wild-type CDR3 AGPMKTSYDKVI
- enrichment [1]: 1.1
- enrichment [2]: 0

Variant: […] (CDR3 as printed); K10A derived by comparing it with the table's wild-type CDR3 AGPMKTSYDKVI
- enrichment [1]: 0.862
- enrichment [2]: 0

Variant: […] (CDR3 as printed); S7W derived by comparing it with the table's wild-type CDR3 AGPMKTSYDKVI
- enrichment [1]: 0.807
- enrichment [2]: 0

Variant: […] (CDR3 as printed); Y8T derived by comparing it with the table's wild-type CDR3 AGPMKTSYDKVI
- enrichment [1]: 1.15
- enrichment [2]: 0

Variant: […] (CDR3 as printed); S7I derived by comparing it with the table's wild-type CDR3 AGPMKTSYDKVI
- enrichment [1]: 1.04
- enrichment [2]: 0

Variant: […] (CDR3 as printed); G2L derived by comparing it with the table's wild-type CDR3 AGPMKTSYDKVI
- enrichment [1]: 0.978
- enrichment [2]: 0

Variant: […] (CDR3 as printed); K5A derived by comparing it with the table's wild-type CDR3 AGPMKTSYDKVI
- enrichment [1]: 0.428
- enrichment [2]: 0

Variant: […] (CDR3 as printed); D9R derived by comparing it with the table's wild-type CDR3 AGPMKTSYDKVI
- enrichment [1]: 1.08
- enrichment [2]: 0

Variant: […] (CDR3 as printed); S7D derived by comparing it with the table's wild-type CDR3 AGPMKTSYDKVI
- enrichment [1]: 0.804
- enrichment [2]: 0

Variant: […] (CDR3 as printed); Y8H derived by comparing it with the table's wild-type CDR3 AGPMKTSYDKVI
- enrichment [1]: 0.969
- enrichment [2]: 0

Variant: […] (CDR3 as printed); V11E derived by comparing it with the table's wild-type CDR3 AGPMKTSYDKVI
- enrichment [1]: 1.34
- enrichment [2]: 0

Variant: […] (CDR3 as printed); S7E derived by comparing it with the table's wild-type CDR3 AGPMKTSYDKVI
- enrichment [1]: 1.01
- enrichment [2]: 0

Variant: […] (CDR3 as printed); V11G derived by comparing it with the table's wild-type CDR3 AGPMKTSYDKVI
- enrichment [1]: 0.956
- enrichment [2]: 0

Variant: […] (CDR3 as printed); T6R derived by comparing it with the table's wild-type CDR3 AGPMKTSYDKVI
- enrichment [1]: 0.792
- enrichment [2]: 0

Variant: […] (CDR3 as printed); D9I derived by comparing it with the table's wild-type CDR3 AGPMKTSYDKVI
- enrichment [1]: 1.01
- enrichment [2]: 0

Variant: […] (CDR3 as printed); M4T derived by comparing it with the table's wild-type CDR3 AGPMKTSYDKVI
- enrichment [1]: 0.518
- enrichment [2]: 0

Variant: […] (CDR3 as printed); K5N derived by comparing it with the table's wild-type CDR3 AGPMKTSYDKVI
- enrichment [1]: 1.12
- enrichment [2]: 0

Variant: […] (CDR3 as printed); A1V derived by comparing it with the table's wild-type CDR3 AGPMKTSYDKVI
- enrichment [1]: 0.809
- enrichment [2]: 0

Variant: […] (CDR3 as printed); T6A derived by comparing it with the table's wild-type CDR3 AGPMKTSYDKVI
- enrichment [1]: 0.82
- enrichment [2]: 0

Variant: […] (CDR3 as printed); S7Q derived by comparing it with the table's wild-type CDR3 AGPMKTSYDKVI
- enrichment [1]: 0.986
- enrichment [2]: 0

Variant: […] (CDR3 as printed); S7V derived by comparing it with the table's wild-type CDR3 AGPMKTSYDKVI
- enrichment [1]: 0.928
- enrichment [2]: 0

Variant: […] (CDR3 as printed); P3W derived by comparing it with the table's wild-type CDR3 AGPMKTSYDKVI
- enrichment [1]: 0.887
- enrichment [2]: 0

Variant: […] (CDR3 as printed); T6F derived by comparing it with the table's wild-type CDR3 AGPMKTSYDKVI
- enrichment [1]: 1.26
- enrichment [2]: 0

Variant: […] (CDR3 as printed); G2D derived by comparing it with the table's wild-type CDR3 AGPMKTSYDKVI
- enrichment [1]: 1.02
- enrichment [2]: 0

Variant: […] (CDR3 as printed); K10M derived by comparing it with the table's wild-type CDR3 AGPMKTSYDKVI
- enrichment [1]: 1.08
- enrichment [2]: 0

Variant: […] (CDR3 as printed); Y8I derived by comparing it with the table's wild-type CDR3 AGPMKTSYDKVI
- enrichment [1]: 1.11
- enrichment [2]: 0

Variant: […] (CDR3 as printed); V11H derived by comparing it with the table's wild-type CDR3 AGPMKTSYDKVI
- enrichment [1]: 0.891
- enrichment [2]: 0

Variant: […] (CDR3 as printed); M4R derived by comparing it with the table's wild-type CDR3 AGPMKTSYDKVI
- enrichment [1]: 0.913
- enrichment [2]: 0

Variant: […] (CDR3 as printed); G2S derived by comparing it with the table's wild-type CDR3 AGPMKTSYDKVI
- enrichment [1]: 1.02
- enrichment [2]: 0

Variant: […] (CDR3 as printed); S7A derived by comparing it with the table's wild-type CDR3 AGPMKTSYDKVI
- enrichment [1]: 0.945
- enrichment [2]: 0

Variant: […] (CDR3 as printed); G2I derived by comparing it with the table's wild-type CDR3 AGPMKTSYDKVI
- enrichment [1]: 1.1
- enrichment [2]: 0

Variant: […] (CDR3 as printed); M4L derived by comparing it with the table's wild-type CDR3 AGPMKTSYDKVI
- enrichment [1]: 0.995
- enrichment [2]: 0

Variant: […] (CDR3 as printed); I12Y derived by comparing it with the table's wild-type CDR3 AGPMKTSYDKVI
- enrichment [1]: 1.06
- enrichment [2]: 0

Variant: […] (CDR3 as printed); G2Y derived by comparing it with the table's wild-type CDR3 AGPMKTSYDKVI
- enrichment [1]: 0.902
- enrichment [2]: 0

Variant: […] (CDR3 as printed); I12T derived by comparing it with the table's wild-type CDR3 AGPMKTSYDKVI
- enrichment [1]: 0.984
- enrichment [2]: 0

Variant: […] (CDR3 as printed); P3C derived by comparing it with the table's wild-type CDR3 AGPMKTSYDKVI
- enrichment [1]: 0.884
- enrichment [2]: 0

Variant: […] (CDR3 as printed); K5Y derived by comparing it with the table's wild-type CDR3 AGPMKTSYDKVI
- enrichment [1]: 0.737
- enrichment [2]: 0

Variant: […] (CDR3 as printed); K10W derived by comparing it with the table's wild-type CDR3 AGPMKTSYDKVI
- enrichment [1]: 1.38
- enrichment [2]: 0

Variant: […] (CDR3 as printed); V11I derived by comparing it with the table's wild-type CDR3 AGPMKTSYDKVI
- enrichment [1]: 0.74
- enrichment [2]: 0

Variant: […] (CDR3 as printed); V11Y derived by comparing it with the table's wild-type CDR3 AGPMKTSYDKVI
- enrichment [1]: 1.04
- enrichment [2]: 0

Variant: […] (CDR3 as printed); G2A derived by comparing it with the table's wild-type CDR3 AGPMKTSYDKVI
- enrichment [1]: 0.977
- enrichment [2]: 0

Variant: […] (CDR3 as printed); K5W derived by comparing it with the table's wild-type CDR3 AGPMKTSYDKVI
- enrichment [1]: 0.659
- enrichment [2]: 0

Variant: […] (CDR3 as printed); A1Y derived by comparing it with the table's wild-type CDR3 AGPMKTSYDKVI
- enrichment [1]: 0.935
- enrichment [2]: 0

Variant: […] (CDR3 as printed); A1L derived by comparing it with the table's wild-type CDR3 AGPMKTSYDKVI
- enrichment [1]: 0.94
- enrichment [2]: 0

Variant: […] (CDR3 as printed); A1M derived by comparing it with the table's wild-type CDR3 AGPMKTSYDKVI
- enrichment [1]: 0.803
- enrichment [2]: 0

Variant: […] (CDR3 as printed); Y8S derived by comparing it with the table's wild-type CDR3 AGPMKTSYDKVI
- enrichment [1]: 0.528
- enrichment [2]: 0

Variant: […] (CDR3 as printed); K5D derived by comparing it with the table's wild-type CDR3 AGPMKTSYDKVI
- enrichment [1]: 0.812
- enrichment [2]: 0

Variant: […] (CDR3 as printed); T6H derived by comparing it with the table's wild-type CDR3 AGPMKTSYDKVI
- enrichment [1]: 1.22
- enrichment [2]: 0

Variant: […] (CDR3 as printed); T6W derived by comparing it with the table's wild-type CDR3 AGPMKTSYDKVI
- enrichment [1]: 1.07
- enrichment [2]: 0

Variant: […] (CDR3 as printed); G2E derived by comparing it with the table's wild-type CDR3 AGPMKTSYDKVI
- enrichment [1]: 0.844
- enrichment [2]: 0

Variant: […] (CDR3 as printed); T6N derived by comparing it with the table's wild-type CDR3 AGPMKTSYDKVI
- enrichment [1]: 0.879
- enrichment [2]: 0

Variant: […] (CDR3 as printed); P3I derived by comparing it with the table's wild-type CDR3 AGPMKTSYDKVI
- enrichment [1]: 1.09
- enrichment [2]: 0

Variant: […] (CDR3 as printed); M4V derived by comparing it with the table's wild-type CDR3 AGPMKTSYDKVI
- enrichment [1]: 0.322
- enrichment [2]: 0

Variant: […] (CDR3 as printed); T6P derived by comparing it with the table's wild-type CDR3 AGPMKTSYDKVI
- enrichment [1]: 0.299
- enrichment [2]: 0

Variant: […] (CDR3 as printed); G2H derived by comparing it with the table's wild-type CDR3 AGPMKTSYDKVI
- enrichment [1]: 0.822
- enrichment [2]: 0

Variant: […] (CDR3 as printed); S7L derived by comparing it with the table's wild-type CDR3 AGPMKTSYDKVI
- enrichment [1]: 1.06
- enrichment [2]: 0
